Laboratory results taken from article PMC6747709, “Homology Modeling-Based in Silico Affinity Maturation Improves the Affinity of a Nanobody” (International Journal of Molecular Sciences, 2019).

Tests used:
Conditions in all cases: both partners purified
[1] = molecular target: T1, CD47 extracellular domain (biotin (enzymatically biotinylated; stated for the SPR experiment)); experiment: SPR; Biacore 3000, 25 °C; ~350 RU enzymatically biotinylated CD47^ext immobilised on a CM5 chip, VHHs flowed over at 40 uL/min in 10 mM HEPES, 150 mM NaCl, 3 mM EDTA, 0.05% P20, pH 7.4; 1:1 Langmuir model; duplicates
T1 construct: CD47 extracellular domain; bought protein Abcam ab174029; source: bought: Abcam (ab174029), enzymatically biotinylated

[2] = molecular target: T1, CD47 extracellular domain; experiment: ELISA; indirect ELISA after heat treatment of the VHH (10 min at six temperatures, 4 to 70 °C); CD47^ext coated at 30 ug/mL; VHH at 30 ug/mL, 2 h at 37 °C; detected with HRP-conjugated anti-His tag mAb, OD450
[3] = molecular target: T1, CD47 extracellular domain; experiment: ELISA; indirect ELISA; CD47^ext coated at 30 ug/mL overnight at 4 °C; serially diluted VHH, 2.5 h at 37 °C; detected with HRP-conjugated anti-His tag mAb, OD450

T1 sequence (chain, as listed by the source): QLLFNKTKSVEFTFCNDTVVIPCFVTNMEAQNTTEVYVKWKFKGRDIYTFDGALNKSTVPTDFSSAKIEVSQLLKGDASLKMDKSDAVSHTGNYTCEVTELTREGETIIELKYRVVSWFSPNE

B1: Nb02 quadruple mutant M7 (G107W, T108H, S109V, F110A) (VHH)
VHH: EVQLQASGGGLVQAGGSLRLSCAASGFTNERSQNMGWFRQAPGKEREGVACISSRVVECWYADSVKGRFTISRDNAKNTVYLQMNSLKPEDTAVYYCAAPRAITWHVAVGEHMCDYWGQGTQVTVSS
notes: also called best mutant; lead variant; source: E. coli TransB (DE3), purified (Ni2+ IMAC, HisTrap HP); not shown: His6, C-terminal, kept
Kd [1]: 3.2 ± 1 nM | OD450 at 70 °C relative to 4 °C [2]: ~45% | ELISA signal relative to M0 at 5.625 ug/mL [3]: 158% | ELISA signal relative to M0 at 360 ug/mL [3]: ~120%

B2: Nb02 mutant M6 (VHH)
VHH: EVQLQASGGGLVQAGGSLRLSCAASGFTNERSQNMGWFRQAPGKEREGVACIQSRVVECWYADSVKGRFTISRDNAKNTVYLQMNSLKPEDTAVYYCAAPRAITWHVFVGEHMCDYWGQGTQVTVSS
notes: One of five triple and two quadruple mutants combined from the round 1 mutations; source: E. coli TransB (DE3), purified (Ni2+ IMAC, HisTrap HP)
Kd [1]: 58.2 ± 4.5 nM

B3: Nb02 mutant M4 (VHH)
VHH: EVQLQASGGGLVQAGGSLRLSCAASGFTNERSQNMGWFRQAPGKEREGVACIQSRVVECWYADSVKGRFTISRDNAKNTVYLQMNSLKPEDTAVYYCAAPRAITGHSAVGEHMCDYWGQGTQVTVSS
notes: the text says only that M4 includes F110A; One of five triple and two quadruple mutants combined from the round 1 mutations; source: E. coli TransB (DE3), purified (Ni2+ IMAC, HisTrap HP)
Kd [1]: 57 ± 7.3 nM

B4: Nb02 mutant M2 (VHH)
VHH: EVQLQASGGGLVQAGGSLRLSCAASGFTNERSQNMGWFRQAPGKEREGVACIQSRVVECWYADSVKGRFTISRDNAKNTVYLQMNSLKPEDTAVYYCAAPRAITWTVFVGEHMCDYWGQGTQVTVSS
notes: as for B2
Kd [1]: 11.4 ± 2.1 nM

B5: Nb02 mutant M5 (VHH)
VHH: EVQLQASGGGLVQAGGSLRLSCAASGFTNERSQNMGWFRQAPGKEREGVACISSRVVECWYADSVKGRFTISRDNAKNTVYLQMNSLKPEDTAVYYCAAPRAITWHVFVGEHMCDYWGQGTQVTVSS
notes: as for B2
Kd [1]: 25.3 ± 3.7 nM

B6: Nb02 mutant M3 (VHH)
VHH: EVQLQASGGGLVQAGGSLRLSCAASGFTNERSQNMGWFRQAPGKEREGVACIQSRVVECWYADSVKGRFTISRDNAKNTVYLQMNSLKPEDTAVYYCAAPRAITGHVFVGEHMCDYWGQGTQVTVSS
notes: as for B2
Kd [1]: 69.5 ± 6.1 nM

B7: Nb02 mutant M1 (VHH)
VHH: EVQLQASGGGLVQAGGSLRLSCAASGFTNERSQNMGWFRQAPGKEREGVACIQSRVVECWYADSVKGRFTISRDNAKNTVYLQMNSLKPEDTAVYYCAAPRAITWHSFVGEHMCDYWGQGTQVTVSS
notes: One of five triple and two quadruple mutants combined from the round 1 mutations (S55Q, G107I, G107W, T108H, S109E, S109V, F110A); source: E. coli TransB (DE3), purified (Ni2+ IMAC, HisTrap HP)
Kd [1]: 74.5 ± 5.5 nM
